Experimental data published in article PMC2002144.

Target: epidermal growth factor receptor (EGFr) (human (endogenous in human breast tumours)) (UniProt P00533)
Experiment: radioligand binding; labelled EGF on membrane protein of human breast tumours; multipoint Scatchard analyses and 2 point assays; saturation assay with 1 nM labelled EGF, 100 ug membrane protein, 100 nM unlabelled EGF for non-specific binding, volume 400 ul with buffer; constant of the high affinity site (2 binding sites found)

Substance: epidermal growth factor (EGF), labelled (from UniProt P01132 977-1029) (ligand)
- KD, high affinity site: 0.3 to 0.6 nM
